Nine molecules from US20250042994A1 (HAINAN SIMCERE ZAIMING PHARMACEUTICAL, published 2025) can be followed below.

First the molecules themselves.
B1: F4.78.1 (antibody, human IgG1, V domains shown)
VH: QVQIQQSGAELARPGASVKLSCKASGYTFTNYWMQWIKQRPGQGLEWIGAIYPGDGDTRYTQKFKGKATLTADKSSSTAYMQLSSLASEDSAVYYCAREEVWSPYGMDYWGQGTSVTVSS
VL: QIVLTQSPAIMSASPGEKVTITCSASSSVSYMGWFQQKPGTSPKLWIYSTSNLASGVPARFSGSGSGTSYSLTISRMEAEDAATYYCQQRSIYPLTFGAGTKLELK
notes: human-murine chimeric antibody, human IgG1
B2: F3.77.6 (antibody, human IgG1, V domains shown)
VH: EFQLQQSGPELVKPGASVKISCKASGYSFTDYNMNWVKQSNGKSLEWIGTINPNYITSYNQKFKGKATLTVDQSSSTAYMQLNSLTSEDSAVYYCAGDYKGYWGQGTTLTVSS
VL: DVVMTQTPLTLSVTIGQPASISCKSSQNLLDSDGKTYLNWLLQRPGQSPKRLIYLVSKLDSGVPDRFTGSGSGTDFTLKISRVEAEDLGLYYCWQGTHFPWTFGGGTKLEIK
notes: as for B1
B3: F3.109.1 (antibody, human IgG1, V domains shown)
VH: EVQLQQSGAELVRPGSSVKMSCKTSGYTFTSYGINWVKQRPGQGLEWIGYIYIGNDYTEFNEKFKGKATLTSDTSSSTAYMQLSSLTSEDSAIYFCARFYSNSDPMDYWGHGTSVTVSS
VL: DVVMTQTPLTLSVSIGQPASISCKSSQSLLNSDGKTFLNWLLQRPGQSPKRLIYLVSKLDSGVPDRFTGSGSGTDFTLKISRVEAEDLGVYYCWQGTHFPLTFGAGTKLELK
notes: as for B1
B4: F3.148.10 (antibody, human IgG1, V domains shown)
VH: B3 VH with K19T, S31N, Y52F, F60Y, A97T, S103Y, D104Y, P105G, Y108P, H111Q
VL: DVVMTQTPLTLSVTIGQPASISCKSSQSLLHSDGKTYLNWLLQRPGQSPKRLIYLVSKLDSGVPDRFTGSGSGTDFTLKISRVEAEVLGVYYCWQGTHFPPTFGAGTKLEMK
notes: as for B1
B5: F4.82.11 (antibody, human IgG1, V domains shown)
VH: QVTLKESGPGILQASQTLSLTCSFSGFSLSTFGIGVGWVRQPSGKGLEWLAHIWWNDNKFFNTTLKNRLTLSKDPSNNQVFLKIASVDTADTATYYCARSRSALITTGLYAMDYWGQGTSVTVSS
VL: DIQMTQTPSSLSASLGDRVTISCRSSQDISNYVNWYQQKPDGTVKVLINYTSRLHSGVPSRFSGSGSGTDYSLTISNLEQEDIASYFCQQGFTLPYTFGGGTKLEIK
notes: as for B1
B6: F3.124.7 (antibody, human IgG1, V domains shown)
VH: EVQLQQSGPVLVKPGASVKMSCKASGYTFTDYYMNWVKQRHGKSLEWIGISNPYNGGTSYNQKFKDKATLTVDKSSSTAYMELNSLTSEDSAVYYCAREGGTAQPTSGMDYWGQGTSVTVSS
VL: NIMMTQSPSSLAVSAGEKVTMSCKSSQSVLYSSNQKNYLAWYQQKPGQSPKLLIYWASTRESGVPDRFTGSGSGTDFTLTISSVQPEDPAVYYCHQYRSSYTFGGGTKLEIK
notes: as for B1
B7: F4.4.6 (antibody, human IgG1, V domains shown)
VH: QVQLQQSGAELARPGASVKLSCKASGYTFTSYWMQWVKQRPGQGLEWIGAIYPGDGDSRYTQKFKGKATLTADKSSSTAYMQLSSLASEDSAVYYCARSTTTVLGNNFEYWGQGTTLTVSS
VL: QIVLTQSPAIMSALPGEKVTMTCSASSSVSSMHWYQQKSGTSPKRWIYDTSKLASGVPARFSGSGSGTSYSLTISSMEAEDAATYYCQQWSSNPWTFGGGTKLEIK
notes: as for B1
B8: F3.118.14 (antibody, human IgG1, V domains shown)
VH: QVQLQQSGAELVRPGASVTLSCKASGYTFPDYEIHWVKQTPVHGLEWIGAIDPETGGIGYNQKFTGKAMLTADKSSSTAYMELRSLTSEDSAVYFCTRNYGSRWGQGSTLTVSS
VL: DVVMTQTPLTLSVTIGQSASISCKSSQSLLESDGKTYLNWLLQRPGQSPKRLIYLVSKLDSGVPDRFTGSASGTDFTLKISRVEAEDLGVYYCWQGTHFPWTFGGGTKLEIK
notes: as for B1
B9: F3.74.4 (antibody, human IgG1, V domains shown)
VH: QVQLQQSGAELVRPGASVTLSCKASGYTFTDYEMHWVKQTPVHGLEWIGGIAPETGLTTYNQKFEDKAILTADKSSRTAYMELRSLTSEDSAVYFCNPNNYGLWGTGTTVTVSS
VL: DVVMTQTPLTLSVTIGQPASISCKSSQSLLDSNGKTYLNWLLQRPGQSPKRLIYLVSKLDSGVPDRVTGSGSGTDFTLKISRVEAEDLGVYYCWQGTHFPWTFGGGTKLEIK
notes: as for B1

Numbering of substitutions follows the chain as printed.

One assay addresses T1, Human CD19-his protein (human, UniProt P15391 20-291).
T1 construct: bought protein; also called human CD19 protein; recombinant human CD19-His; not shown: His tag
T1 sequence (looked up): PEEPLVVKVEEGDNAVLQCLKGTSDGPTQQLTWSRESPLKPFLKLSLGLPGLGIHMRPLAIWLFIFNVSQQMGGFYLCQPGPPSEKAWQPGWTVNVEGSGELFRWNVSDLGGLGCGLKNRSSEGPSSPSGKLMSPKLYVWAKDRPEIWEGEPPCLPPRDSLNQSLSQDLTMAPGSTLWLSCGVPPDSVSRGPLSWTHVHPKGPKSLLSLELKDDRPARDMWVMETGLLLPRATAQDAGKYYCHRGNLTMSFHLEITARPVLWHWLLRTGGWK
The experiment in a line: ELISA on coated human CD19-His. On the procedure:
Human CD19-his protein (purchased from ACROBiosystems, catalog number: CD9-H52H2) was diluted with PBS to a final concentration of 4 μg/mL, and then added to a 96-well ELISA plate at 100 μl/well. The plate was sealed with a plastic film and incubated overnight at 4° C., the plate was washed 2 times with PBS the next day, and then a blocking solution [PBS+2% (w/w) BSA] was added for blocking at room temperature for 2 h. The blocking solution was poured off, and 100 nM gradiently diluted CD19 chimeric antibody or control antibody was added at 50 μl/well. After incubation at 37° C. for 2 h, the plate was washed 3 times with PBS. […] TMB substrate was added at 50 μl/well, and incubated at room temperature for 10 min, and then a stop solution (1.0 N HCl) was added at 50 μl/well. The OD450 nm values were read by an ELISA microplate reader (Multimode Plate Reader, EnSight, purchased from Perkin Elmer).
A general note: ELISA stands for enzyme-linked immunosorbent assay.
In the case of B1, the “EC50 (read off the curve)” value was around 0.07 nM.
B2: the “EC50 (read off the curve)” value was around 0.1 nM.
The same measure, in the same setting: the figure for B3 is around 0.2 nM; for B4 it is around 0.2 nM.
As to B5, the “EC50 (read off the curve)” value was around 0.08 nM.
Take B6: the “EC50 (read off the curve)” value is around 0.03 nM.
Turning to B7, the “EC50 (read off the curve)” value is around 0.1 nM.
Turning to B8, the “EC50 (read off the curve)” value was around 0.3 nM.
Regarding B9, the “EC50 (read off the curve)” value was around 0.2 nM.

In a further assay the target is T2, murine CD19 protein (murine, UniProt P25918 17-287, limits assumed).
T2 construct: bought protein; also called commercial murine CD19
T2 sequence (looked up): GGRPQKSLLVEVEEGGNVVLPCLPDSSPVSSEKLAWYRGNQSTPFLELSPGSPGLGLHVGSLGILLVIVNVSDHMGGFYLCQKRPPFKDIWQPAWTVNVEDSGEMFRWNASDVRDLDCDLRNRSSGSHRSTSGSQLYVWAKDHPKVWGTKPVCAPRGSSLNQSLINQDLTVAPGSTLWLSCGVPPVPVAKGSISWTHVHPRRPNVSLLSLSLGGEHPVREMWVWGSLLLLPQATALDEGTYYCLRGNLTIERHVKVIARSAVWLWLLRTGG
Put plainly: ELISA, coated murine CD19. Summed up:
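Plates coated overnight at 4° C with recombinant murine or monkey CD19 and blocked with 2% BSA. Chimeric antibodies, serially diluted from 100 nM, bound for 2 h at 37° C. TMB development for 10 min with OD450 read-out.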
As for B1, the binding result is listed as “no binding”.
For B2, the binding result is given as “no binding”.
As to B3, the binding result is recorded as “no binding”.
B4: the binding result is given as “no binding”.
B5: the binding result is “no binding”.
In the case of B6, the binding result is on record as “no binding”.
For the molecule B7, the binding result is reported as “no binding”.
Take B8: the binding result is “no binding”.
Regarding B9, the binding result is “no binding”.

The target in a further assay is T1, Human CD19-his protein. Put plainly: ELISA, antibody at 100 nM.
In turn, B1 showed an OD450 of 1.87.
Take B2: the OD450 was determined as 2.94.
As to B3, the OD450 is 2.98.
The molecule B4 yielded an OD450 of 3.01.
Turning to B5, the OD450 was 1.52.
B6 came in with an OD450 of 2.75.
In the case of B7, the OD450 amounted to 0.79.
As to B8, the OD450 was found to be 3.21.
On the same count and under the same terms, the same measure for B9: 2.96.

Another assay addresses T1, Human CD19-his protein. Put plainly: ELISA, antibody at 0.01 nM.
Turning to B1, the OD450 came to 0.23.
On the same count and under the same terms, the same measure for B2: 0.3; for B3: 0.24.
Still for that read-out and setting: the same measure for B4: 0.22; for B5: 0.24; for B6: 0.81.
The molecule B7 had an OD450 of 0.1.
In turn, B8 registered an OD450 of 0.19.
On to B9, for which the OD450 amounted to 0.21.

The target of another assay is T1, Human CD19-his protein. The experiment in a line: ELISA, antibody at 1.00 nM.
Molecule B1 had an OD450 of 1.73.
For B2, the OD450 amounted to 2.69.
Take B3: the OD450 is 2.62.
With B4, the OD450 turned out to be 2.66.
The molecule B5 returned an OD450 of 1.6.
B6 registered an OD450 of 2.6.
As for B7, the OD450 was 0.6.
Consider B8, for which the OD450 is 2.27.
B9: the OD450 is 2.32.

A further assay addresses T3, human CD19 exon1-3-his protein (human, UniProt P15391 20-186, limits assumed).
T3 construct: made in HEK293E cells; also called membrane-distal end; not shown: His tag
T3 sequence (looked up): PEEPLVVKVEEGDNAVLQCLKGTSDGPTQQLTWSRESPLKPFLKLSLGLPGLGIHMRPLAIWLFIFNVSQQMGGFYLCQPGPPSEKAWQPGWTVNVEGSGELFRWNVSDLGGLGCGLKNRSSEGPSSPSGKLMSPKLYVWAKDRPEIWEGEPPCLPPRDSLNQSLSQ
The experiment in a line: ELISA, coated at 2 ug/mL.
In the case of B1, the binding result is “no binding”.
Consider B5, for which the binding result is reported as “no binding”.
As to B7, the binding result is given as “no binding”.

Another assay addresses T1, Human CD19-his protein. The experiment in a line: ELISA, antibody at 0.0001 nM.
The molecule B1 had an OD450 of 0.06.
Molecule B2 yielded an OD450 of 0.05.
On to B3, for which the OD450 was 0.05.
Regarding B4, the OD450 is 0.05.
B5 registered an OD450 of 0.09.
B6 gave an OD450 of 0.08.
The same measure, in the same setting: the same measure for B7: 0.05; for B8: 0.05; for B9: 0.05.

The target of a further assay is T1, Human CD19-his protein. Put plainly: ELISA, antibody at 0.001 nM.
As to B1, the OD450 was 0.08.
As for B2, the OD450 was found to be 0.08.
As for B3, the OD450 stood at 0.07.
B4 returned an OD450 of 0.07.
As for B5, the OD450 is 0.18.
B6 showed an OD450 of 0.18.
With B7, the OD450 stood at 0.06.
The molecule B8 yielded an OD450 of 0.07.
Molecule B9 showed an OD450 of 0.07.

The target of a further assay is T1, Human CD19-his protein. The experiment in a line: ELISA, antibody at 0.10 nM.
Molecule B1 gave an OD450 of 1.09.
In the case of B2, the OD450 was 1.33.
On the same count and under the same terms, the same measure for B3: 1.18.
B4 returned an OD450 of 0.98.
B5 gave an OD450 of 0.85.
The molecule B6 yielded an OD450 of 2.08.
With B7, the OD450 turned out to be 0.37.
For the molecule B8, the OD450 came out at 1.02.
For the molecule B9, the OD450 was 1.02.

The target in a further assay is T1, Human CD19-his protein. The experiment in a line: ELISA, antibody at 10 nM.
The molecule B1 registered an OD450 of 1.94.
Molecule B2 yielded an OD450 of 2.98.
In the case of B3, the OD450 was found to be 2.92.
On the same count and under the same terms, the same measure for B4: 2.94; for B5: 1.55.
On the same count and under the same terms, the same measure for B6: 2.63; for B7: 0.58.
B8: the OD450 amounted to 2.9.
Take B9: the OD450 came to 2.64.

As usually defined, the EC50 (read off the curve) is the concentration at which the effect is half-maximal. Read a low EC50 (read off the curve) as an effect from little substance.
